Results from article PMC7406681, “Structural characterization of the C-terminal domain of SARS-CoV-2 nucleocapsid protein”.

Tests used:
[1] = target: T1, SARS-CoV-2 nucleocapsid C-terminal domain (N-CTD) (SARS-CoV-2 (Wuhan-Hu-1), UniProt P0DTC9 248-364); assay: EMSA; conditions: protein: recombinant; tags: N-terminal His6 removed by TEV; residual Gly-Ala-Ser at N-terminus; chain copies: 2
[2] = target: T1, SARS-CoV-2 nucleocapsid C-terminal …; assay: EMSA; N-CTD:DNA molar ratios 2:1 to 10:1; conditions: protein: recombinant, tags: N-terminal His6 removed by TEV, residual Gly-Ala-Ser at N-terminus, chain copies: 2

B1: 17-mer ssRNA (5' UTR SL3/TRS) (ssRNA)
RNA: UGUUCUCUAAACGAACU
binding result [1]: binds

B2: 17-bp dsDNA (DNA mimic of SL3/TRS RNA) (dsDNA)
DNA 1: TGTTCTCTAAACGAACT
DNA 2: AGTTCGTTTAGAGAACA
binding result ([2]; blunt): binds

B3: 17-mer ssDNA (DNA mimic of SL3/TRS RNA) (ssDNA)
DNA: TGTTCTCTAAACGAACT
binding result [2]: binds
